# Measurements from the nanobody polyreactivity screen of Harvey et al. (2022).
# Experiment: yeast display, Sf9 membrane polyspecificity reagent, FACS + sequencing; frameworks hold sequencing errors
# Outline: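 Polyreactivity labels are assigned by the sorting gate from which each nanobody was recovered. The gates were low and high (top ~1%), set on anti-HA fluorescence for expression and streptavidin fluorescence for reagent binding. Before sorting, galactose-induced (36–48 hours) yeast display cells were stained for 1 hour at 4 °C with 10% biotinylated, detergent-solubilized Sf9 membrane reagent.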
row,Sequence,polyreactivity (PSR sort gate)
1,QVQLVESGGGLVQAGGSLRLSCAASGRIFGNYAMGWYRQAPGKERELVAAITSGARTYYADSVKGRFTLSRDNAKNTVYLQMNSLKPEDTAVYYCAAYHKSYSNRYDYWGQGTHVTVSS,high polyreactivity
2,QVQLVESGGGLFQAGGSLRLSCAASGRIFGFYAMGWYRQAPGKERELVARITLSGGRTYYADSVKGRFTISRDNAKNTVYLQMNSLKPEDTAVYYCAADSIGRLWGYGYWGQGTQVTVSS,high polyreactivity
3,QVQLVESGGGLVQAGGSLRLSCAASGITYEGYAMGWNRKAPGKERELVAAIRSSGTSTYYADSVKGRFTISRDNAKNSVYLQMNSLKPEDTAVYYCNRARSSSRYDYWGQGTQVTVSS,low polyreactivity
4,QVQLVESGGGLVQAGGSLRLSCAASGITFCSYTMGWYRQAPGKERELVAVISSGGSTNYADSVKGRFTISRDNAKNTVYLQMNSLKPEDTAVYYCAADFRWWYTGFDYWGQGTQVTVSS,high polyreactivity
5,QVQLVESGAGLVQAGGSLRLSCAASGFIFRGNTMGWYRQAPGKERELVASITRGGGRTYYADSVKGRFTISRDNAKNTVYLQMNSLKPEDTAVYYCAARTRSDNSYHGGEYWGQGTQVTVSS,high polyreactivity
6,QVQLLESGGGLVQAGGSLRLSCAASGRIFYVNAMGWYRQSPGKERELVAGIDDGVTTYYADSVKGRFTISRDNAKNTVYLLMNRLKPEDTAVYYCAAETSTNPEAYEYWGQGTQVTVSS,low polyreactivity
7,QVQLVESGGCLVQAGGSLRLSCAASGRISVFYAMGWYRQAPGKERELVAAITRSGTTKYADSVKGRFTISRDNAKNTVYLQMNSLKPEDTAVYYCAVRRYRARFGYWGKGTQVTVSS,high polyreactivity
8,QVQLQESGGGLVLAGGSLRLSCSASGNISVYGSMGWYRQAPGKEREFVATIDPGTNTNYADSVKDRFTISRDNAKNTVYLQMNSLKPEDTAVYYCAVEAGSDWLYRYWGQGTKVTVSS,low polyreactivity
9,QVQLVESGGGLVQAGGSLRLSCAASGSSFYYYAMGWYRQAPGKERELVAAITSGDTTNYADSVKGRFTISRDNAKNTVYLQMNSLIPEDTAVYYCAVDLNTTAFYPEAATYLDEYWGQGTQVTVSS,low polyreactivity
10,QVQLVESGGGLVQAGGSLRLSCAASGFTFRYYTMGWYRQAPGKERELVARITTGGSTKYADSVKGRFTISRDNAKNTVYLQMNSLKPEDTAVYYCAARQYKWWFSQDGYDYWGQGTQVTVSS,high polyreactivity
11,QVQLVESGGGLVQAGGSLRLSCAASGSIFGGNAMGWYRQAPGKERELVAAITYSGGSTYYADSVKGRFTISRDNAKNTVYLQMNSLKPEDTAVYYCAASASVRGGGADQYVIAFDYWGQGTQVTVSS,low polyreactivity
12,QVQLVESGGGLVHAGGSLRLSCAASGRTFSYYTMAWYRQAPGKERELVAAISGRGGSTYYADSVKGRFTISRDNAKNTVYLQMNSLKPEDTAVYYCNVVKQYLGGVPDFDYWGQGTQVTVSS,low polyreactivity
13,QVQLVQSGGGLVQAGGSLRLSCAASGRIFRTYAMGWYRQAPGKERELVAAISSRSGSTYYADSVKGRFTISRDNAKNTVYLQMQSLKPEDTAVYYCASRYGYRYADKGSEYGYWGQGTLVTVSS,high polyreactivity
14,QVQLVESGGGLVQAGGSLRLSCAASGITFYRYDMGWYRQAPGKERELVAAISTRGGSTYYADSVKGRFTISRDNAKNTVYLQMNSLKPEDTAVYYCAKERVGTSLPFKDYYWGQGTQVTVSS,low polyreactivity
15,QVQLVESGGGLVQAGGSLRLSCAASGIIFESYSMGWYRQAPGKERELVAAISWDGGSTYYADSVKGRFTISRDNAKNTVYLQMNSLKPEDTAVYYCAAESYGIYDGYDYWGQGTQVTVSS,high polyreactivity
16,QVQLVESGGGLVQAGGSLRLSCAASGFTFYAYAMGWYRPAPGKERELVAALTGRGGSTYYADSVKGRFTISRDNAKNTVYLQMNSLKPEDTAVYYCNKVKQSDKFNNFSNDYWGQGTQVTVSS,high polyreactivity
17,QVQLVESWGGLVQAGGSLRLSCAASGSIFYVNDMGWYRQAPGKERELVAAISSTGSTKYADSVKGRFTISRDNAKNTVYLQMNSLKPEDTAVSYCAKEPGHRFEFDYWGQGTQVTVSS,low polyreactivity
18,QVQLVESGGGLVQAGGSLRLSCAASGLIFNYYAMGWYRPAPGKERELVAAIYNGGSTYADSVKGRFTISRDNAKNTVYLQMNSLKPEDTAVYYCNTDDPDRDNDVKSIDYDYWGQGTQVTVSS,low polyreactivity
19,QVQLVESGGGLVQAGGSLRLSCAASGFTFGSYAMGWYRQAPGKDRELVARISSDGSTNYADSVKGRFTISRDYAKNTVYLQMNSLKPEDTAVYYCAVRHRYTRAYWGRDYWGQGTQVTVSS,low polyreactivity
20,QVQLVESGLGLVQAAGSLRLSCAASGSILYSYAMGWYRQAPGKERELFAAITGAGASTNYADSVKGRFTISRDNGKNTVYLQMNSLKPEDTAVYYCNAEYNPYHYYKAWVYTYDYGYWGQGTQVTVSS,low polyreactivity
21,QVQLVESGGGLVQAGGSLRLSCAASGRTLLPNAMGWYRPAPGKERELVADISTSDGSTRYADSVKGRFTISRDNAKNTVYLQMNSLKPEDTAVYYCAAGSEYYSYGGVRFSFYYWGQGTQVTVSS,low polyreactivity
22,QVQLVESGGGLVQAGGSLRLSCDASGITFWNALGWYRQAPGKERELVAAITSSGGSTYYADSVKGRFTISRDNAKNTVDLQMNSLKPEDTAVYYCAADYGRTRYDMDYWGQGTQVTVSS,low polyreactivity

row,Sequence,polyreactivity (PSR sort gate)
1,QVQLVESGGGLVQAGGSLRLSCAASGIIFEPNAMGWYRQAPGKERELVAAIDSGGITYYADSVKGRFTISRDNAKNTVYLQMNSLKPEDTAVYYCAAEAVVVTKYRYWTYGLYDYWGQGTQVTVSS,high polyreactivity
2,QVQLVESGGGLVQAGGSLRLSCAASGSTFVQNAMGWYRQAPGNERELVAAISRTGGSTYYADSVKGRFTISRDNAKNTVYLQMNSLKPEDTAVYYCAKRPPNYSWPKIIEFGSWGLGTQVTVSS,high polyreactivity
3,QVQLVESGGGLVQAGGSLRLSCAASGSTFWEYVMGWYRQAPGKERELVAAITTNDDSTYYADSVKGRFTISRDNAKNTVYLQMNSLKPEDTAVYYFNADQITGQFDYWGQGTQVTVSS,low polyreactivity
4,QVQLVESGGGLVQAGGSLRLSCAASGSTFDYNAMGWYRQAPGKERELVAAINSGASTYYADSVKGRFTISRDNAKNTVYLQMNSLKPEDTAVYYCAKDYPYIGDYWGQGTQVTVSS,low polyreactivity
5,QVQLVESGGGLVQAGGSLRLSCAASGNAIGWYRQAPGKERELVASINRSGGRTYYADSVKGRFTISRDNAKNTVYLQMNSLKPEDTAVYYCAARTHYDSDYWGQGTQVTVSS,low polyreactivity
6,QVQLVESGGGLVQAGGSLRLSCAASGRIFDYYAMGWYRQAPGKERELVAAINRGGNTYYADSVKGRFTISRDNAKNTVYLQMNSLKPEETSVYYCNAQWYYLRYRYDYWGQGTQVTVSS,high polyreactivity
7,QVQLVESGGGLVQAGGSLRLSCAASGRIFTGNAMGWYRQAPGKERELVASITYNGGRTYYADSVKGRFTISRDKAKNTVYLPMNRLKPEDTAVYYCNAGDYGFGYEYWGQGTQVTVSS,low polyreactivity
8,QVQLVESGGGLVQAGGSLRLSCAASGSTFRWNAMGWYRQAPGKERELDAAINSGGSTNYADSVKGRFTISRDNAKNTVYLQMNSLKPEDTAVYYCATRYDVSYIKFDYWGQGTQVTVSS,high polyreactivity
9,QVQLVESGGGLVQAGGSLRLSCAASGFTFPYYAMGWYRQAPGKERELVAAISRSGTSTNYADSVKGRFTISRDNAKNTVYLQMNSLKPEDTAVYYCATARRQGKVIQYYYWGQGTQVTVSS,high polyreactivity
10,QVQLVESGGALVQAGGRLRLSCAASGSTFTYNAMGWYRQAPGKERELVASISSGTTTYYADSVKGRFTISRDNAKNTVSLQMNSLKPEDTAVYDCAVDSWSRVQGWLAHNYDYWGQGTQVTVSS,low polyreactivity
11,QVQLVESGGGLVQAGGSLRLSCAASGFTFGYYAMGWYRQAPGKERELVAAISSSGGSTYYADSVKGRFTISRDNAKNTVYLQMNSLKPEDTAVYYCAVVVFSRVYRYFTSDYWGQGTQVTVSS,high polyreactivity
12,QVQLVESGGGLVQAGGSLRLSCAASGSTFFHYVMGWYRQAPWKERELVAAIRWSGGRTRYADSVKGRFTISRDNAKNTVYLQMNSLKPEDTAVYYCAAYRLSKPFYKYDYWGQGTQVTVSS,high polyreactivity
13,QVQLVESGGGLVQAGGSLRLSCAASGIIFYRYAMGWYRQAPGKERELVAAINTSGGRTYYADSVKGRFTISRDNAKNTVYLQMNSLKPEDTAVYYCAAYYSPVGFQYDYWGQGTQVTVSS,high polyreactivity
14,QVQLVESGGGLVQAGGSLRLSCAASGSTFDDYDMGWYRQAPGKEREFVATIDWSGGSTYYADSVKGRFTNSRDNAKNTVYLQMNSLKPEDTAVYYCTALRYVVYFDDDYWGQGTQVTVSS,high polyreactivity
15,QVQLVESGGGLVQAGGSLRLSCAASGRTLSYYAMGWYSQAPGKERELVAAITWNGGRTYYADSVKGRFTISRDNAKNTVYLQMNSRKPEDTAVYYCNAVYSPRYYVGGYDYWGQGTQVTVSS,high polyreactivity
16,QVHLVESGGGLVQAGGSLRLTCAASGFTYPGNAMGWYRQAPGKERELVATINWSGTSTYYADSVKGRFTISRDYAKNTVYLQMNSLKPEDTAVYYCAVDTGGPGYRFDYWGQGTQVTVSS,high polyreactivity
17,QVQLVESGGGLVQAGGSLRLSCAASGSIFYLYTMGWYRQAPGKERELVASITYSGGTYYADSVKGRFTISRDNAKNTVYLQINSLKPEDTAVYYCNADASYYLDDEYDYWGQGTQVTVSS,low polyreactivity
18,QVQLVESGGGLVQAGGSLRLSCAGSGSTFGGYAMGWYRQAPGKEWELVAAINSGGSTYYADSVKGRFTISRDNAKNTVYLQMNSLKPEDTAVYYCNADSQVIRDYIFDYWGQGTQVTVSS,low polyreactivity
19,QVQLVESGGGLVQAGGSLRLSCAASGLTLLKNAMGWYRQAPGKEREYADSVKGRFTISRDNAKNTVYLQMNSLKPEDTAVYYCAKDVNGGYFYYQYPAQYYYWGQGTQVTVSS,low polyreactivity
20,QFQIVESGGGLVQAGGSLRLSCAASGSTFRSYAMGWYRQAPGKERELFARISYRTGSTYYADSVKRRFTISRDNAKNTVYLQMNSLKPEDTVVYYCAAGYIIQRSYFLYDSWGHGTQVTVSS,high polyreactivity
21,QVQLVESGGGLVQAGGSLRLSCAASGSTFSKNAMGWYRQAPGKERELVASISTDGDSTYYADSVKGRFTISRDNAKNTVYFQMNSLKPEDTAVYYCNVVYYGRTWVPYVWEYDYWGQGTQVTVSS,low polyreactivity
